In patent US20180155451A1 (published 2018):

B1: GpH7-A5/GpH7-B3 variant I332_01G/GpL16-k0 (antibody, human IgG1, kappa)
heavy 1: not shown
heavy 2: not shown
light: DIVMTQSPLSLPVTPGEPASISCQASESLVHSNRNTYLHWYLQKPGQSPQLLIYKVSNRFSGVPDRFSGSGSGTDFTLKISRVEAEDVGVYYCSQNTHVPPTFGQGTKVEIERTVAAPSVFIFPPSDEQLKSGTASVVCLLNNFYPREAKVQWKVDNALQSGNSQESVTEQDSKDSTYSLSSTLTLSKADYEKHKVYACEVTHQGLSSPVTKSFNRGEC
notes: position is EU numbering; also called He Ab
B2: GpH7-A5/GpH7-B3 variant I332_12R/GpL16-k0 (antibody, human IgG1, kappa)
heavy 1: not shown
heavy 2: not shown
light: DIVMTQSPLSLPVTPGEPASISCQASESLVHSNRNTYLHWYLQKPGQSPQLLIYKVSNRFSGVPDRFSGSGSGTDFTLKISRVEAEDVGVYYCSQNTHVPPTFGQGTKVEIERTVAAPSVFIFPPSDEQLKSGTASVVCLLNNFYPREAKVQWKVDNALQSGNSQESVTEQDSKDSTYSLSSTLTLSKADYEKHKVYACEVTHQGLSSPVTKSFNRGEC
notes: as for B1
B3: GpH7-A5/GpH7-B3 variant Q295_13S/GpL16-k0 (antibody, human IgG1, kappa)
heavy 1: not shown
heavy 2: not shown
light: DIVMTQSPLSLPVTPGEPASISCQASESLVHSNRNTYLHWYLQKPGQSPQLLIYKVSNRFSGVPDRFSGSGSGTDFTLKISRVEAEDVGVYYCSQNTHVPPTFGQGTKVEIERTVAAPSVFIFPPSDEQLKSGTASVVCLLNNFYPREAKVQWKVDNALQSGNSQESVTEQDSKDSTYSLSSTLTLSKADYEKHKVYACEVTHQGLSSPVTKSFNRGEC
notes: as for B1
B4: GpH7-A5/GpH7-B3 variant K334_07I/GpL16-k0 (antibody, human IgG1, kappa)
heavy 1: not shown
heavy 2: not shown
light: DIVMTQSPLSLPVTPGEPASISCQASESLVHSNRNTYLHWYLQKPGQSPQLLIYKVSNRFSGVPDRFSGSGSGTDFTLKISRVEAEDVGVYYCSQNTHVPPTFGQGTKVEIERTVAAPSVFIFPPSDEQLKSGTASVVCLLNNFYPREAKVQWKVDNALQSGNSQESVTEQDSKDSTYSLSSTLTLSKADYEKHKVYACEVTHQGLSSPVTKSFNRGEC
notes: as for B1
B5: GpH7-A5/GpH7-B3 variant P329_02A/GpL16-k0 (antibody, human IgG1, kappa)
heavy 1: not shown
heavy 2: not shown
light: DIVMTQSPLSLPVTPGEPASISCQASESLVHSNRNTYLHWYLQKPGQSPQLLIYKVSNRFSGVPDRFSGSGSGTDFTLKISRVEAEDVGVYYCSQNTHVPPTFGQGTKVEIERTVAAPSVFIFPPSDEQLKSGTASVVCLLNNFYPREAKVQWKVDNALQSGNSQESVTEQDSKDSTYSLSSTLTLSKADYEKHKVYACEVTHQGLSSPVTKSFNRGEC
notes: as for B1
B6: GpH7-A5/GpH7-B3 variant P329_11K/GpL16-k0 (antibody, human IgG1, kappa)
heavy 1: not shown
heavy 2: not shown
light: DIVMTQSPLSLPVTPGEPASISCQASESLVHSNRNTYLHWYLQKPGQSPQLLIYKVSNRFSGVPDRFSGSGSGTDFTLKISRVEAEDVGVYYCSQNTHVPPTFGQGTKVEIERTVAAPSVFIFPPSDEQLKSGTASVVCLLNNFYPREAKVQWKVDNALQSGNSQESVTEQDSKDSTYSLSSTLTLSKADYEKHKVYACEVTHQGLSSPVTKSFNRGEC
notes: as for B1
B7: GpH7-A5/GpH7-B3 variant K334_02A/GpL16-k0 (antibody, human IgG1, kappa)
heavy 1: not shown
heavy 2: not shown
light: DIVMTQSPLSLPVTPGEPASISCQASESLVHSNRNTYLHWYLQKPGQSPQLLIYKVSNRFSGVPDRFSGSGSGTDFTLKISRVEAEDVGVYYCSQNTHVPPTFGQGTKVEIERTVAAPSVFIFPPSDEQLKSGTASVVCLLNNFYPREAKVQWKVDNALQSGNSQESVTEQDSKDSTYSLSSTLTLSKADYEKHKVYACEVTHQGLSSPVTKSFNRGEC
notes: as for B1
B8: GpH7-A5/GpH7-B3 variant K334_05P/GpL16-k0 (antibody, human IgG1, kappa)
heavy 1: not shown
heavy 2: not shown
light: DIVMTQSPLSLPVTPGEPASISCQASESLVHSNRNTYLHWYLQKPGQSPQLLIYKVSNRFSGVPDRFSGSGSGTDFTLKISRVEAEDVGVYYCSQNTHVPPTFGQGTKVEIERTVAAPSVFIFPPSDEQLKSGTASVVCLLNNFYPREAKVQWKVDNALQSGNSQESVTEQDSKDSTYSLSSTLTLSKADYEKHKVYACEVTHQGLSSPVTKSFNRGEC
notes: as for B1
B9: GpH7-A5/GpH7-B3 variant K334_04F/GpL16-k0 (antibody, human IgG1, kappa)
heavy 1: not shown
heavy 2: not shown
light: DIVMTQSPLSLPVTPGEPASISCQASESLVHSNRNTYLHWYLQKPGQSPQLLIYKVSNRFSGVPDRFSGSGSGTDFTLKISRVEAEDVGVYYCSQNTHVPPTFGQGTKVEIERTVAAPSVFIFPPSDEQLKSGTASVVCLLNNFYPREAKVQWKVDNALQSGNSQESVTEQDSKDSTYSLSSTLTLSKADYEKHKVYACEVTHQGLSSPVTKSFNRGEC
notes: as for B1
B10: GpH7-A5/GpH7-B3 variant K334_09D/GpL16-k0 (antibody, human IgG1, kappa)
heavy 1: not shown
heavy 2: not shown
light: DIVMTQSPLSLPVTPGEPASISCQASESLVHSNRNTYLHWYLQKPGQSPQLLIYKVSNRFSGVPDRFSGSGSGTDFTLKISRVEAEDVGVYYCSQNTHVPPTFGQGTKVEIERTVAAPSVFIFPPSDEQLKSGTASVVCLLNNFYPREAKVQWKVDNALQSGNSQESVTEQDSKDSTYSLSSTLTLSKADYEKHKVYACEVTHQGLSSPVTKSFNRGEC
notes: as for B1
B11: GpH7-A5/GpH7-B3 variant I332_10E/GpL16-k0 (antibody, human IgG1, kappa)
heavy 1: not shown
heavy 2: not shown
light: DIVMTQSPLSLPVTPGEPASISCQASESLVHSNRNTYLHWYLQKPGQSPQLLIYKVSNRFSGVPDRFSGSGSGTDFTLKISRVEAEDVGVYYCSQNTHVPPTFGQGTKVEIERTVAAPSVFIFPPSDEQLKSGTASVVCLLNNFYPREAKVQWKVDNALQSGNSQESVTEQDSKDSTYSLSSTLTLSKADYEKHKVYACEVTHQGLSSPVTKSFNRGEC
notes: as for B1
B12: GpH7-A5/GpH7-B3 variant K334_08L/GpL16-k0 (antibody, human IgG1, kappa)
heavy 1: not shown
heavy 2: not shown
light: DIVMTQSPLSLPVTPGEPASISCQASESLVHSNRNTYLHWYLQKPGQSPQLLIYKVSNRFSGVPDRFSGSGSGTDFTLKISRVEAEDVGVYYCSQNTHVPPTFGQGTKVEIERTVAAPSVFIFPPSDEQLKSGTASVVCLLNNFYPREAKVQWKVDNALQSGNSQESVTEQDSKDSTYSLSSTLTLSKADYEKHKVYACEVTHQGLSSPVTKSFNRGEC
notes: as for B1
B13: GpH7-A5/GpH7-B3 variant K334_06M/GpL16-k0 (antibody, human IgG1, kappa)
heavy 1: not shown
heavy 2: not shown
light: DIVMTQSPLSLPVTPGEPASISCQASESLVHSNRNTYLHWYLQKPGQSPQLLIYKVSNRFSGVPDRFSGSGSGTDFTLKISRVEAEDVGVYYCSQNTHVPPTFGQGTKVEIERTVAAPSVFIFPPSDEQLKSGTASVVCLLNNFYPREAKVQWKVDNALQSGNSQESVTEQDSKDSTYSLSSTLTLSKADYEKHKVYACEVTHQGLSSPVTKSFNRGEC
notes: as for B1
B14: GpH7-A5/GpH7-B3 variant K334_01G/GpL16-k0 (antibody, human IgG1, kappa)
heavy 1: not shown
heavy 2: not shown
light: DIVMTQSPLSLPVTPGEPASISCQASESLVHSNRNTYLHWYLQKPGQSPQLLIYKVSNRFSGVPDRFSGSGSGTDFTLKISRVEAEDVGVYYCSQNTHVPPTFGQGTKVEIERTVAAPSVFIFPPSDEQLKSGTASVVCLLNNFYPREAKVQWKVDNALQSGNSQESVTEQDSKDSTYSLSSTLTLSKADYEKHKVYACEVTHQGLSSPVTKSFNRGEC
notes: as for B1
B15: GpH7-A5/GpH7-B3 variant I332_09D/GpL16-k0 (antibody, human IgG1, kappa)
heavy 1: not shown
heavy 2: not shown
light: DIVMTQSPLSLPVTPGEPASISCQASESLVHSNRNTYLHWYLQKPGQSPQLLIYKVSNRFSGVPDRFSGSGSGTDFTLKISRVEAEDVGVYYCSQNTHVPPTFGQGTKVEIERTVAAPSVFIFPPSDEQLKSGTASVVCLLNNFYPREAKVQWKVDNALQSGNSQESVTEQDSKDSTYSLSSTLTLSKADYEKHKVYACEVTHQGLSSPVTKSFNRGEC
notes: as for B1
B16: GpH7-A5/GpH7-B3 variant P329_12R/GpL16-k0 (antibody, human IgG1, kappa)
heavy 1: not shown
heavy 2: not shown
light: DIVMTQSPLSLPVTPGEPASISCQASESLVHSNRNTYLHWYLQKPGQSPQLLIYKVSNRFSGVPDRFSGSGSGTDFTLKISRVEAEDVGVYYCSQNTHVPPTFGQGTKVEIERTVAAPSVFIFPPSDEQLKSGTASVVCLLNNFYPREAKVQWKVDNALQSGNSQESVTEQDSKDSTYSLSSTLTLSKADYEKHKVYACEVTHQGLSSPVTKSFNRGEC
notes: as for B1

Experiments:
[1] = target: T1, FcγRIIIa extracellular domain with C-terminal His tag (human, UniProt P08637 17-208); assay: SPR (Biacore); ratio of He/Con_3a (FcγRIIIa) to He/Con_2b (FcγRIIb)
T1 construct: extracellular domain; also called FcgRIIIa; 3a; not shown: His tag at the C terminus
Description: (§1) The heterodimerized antibodies He Abs in which one of the H chains was introduced with an alteration were assayed for their binding activities to each activating FcγR and inhibitory FcγR according to the method described in Example 4. […] The activating FcγRs in FIGS. 26, 27, 28, and 29 are FcγRIa, FcγRIIa (R), FcγRIIa (H), and FcγRIIIa, respectively.
(§2) Analysis of interaction between objective antibody and the FcγR was carried out using Biacore T100 (GE Healthcare). HBS-EP+ (GE Healthcare) was used as the running buffer, and the measurement temperature was set to 25° C. Chips produced by immobilizing the antigen peptide by the amine coupling method to a Series S Sencor Chip CM5 (GE Healthcare), or alternatively, chips produced by allowing preliminarily biotinylated antigen peptides to interact with and immobilize onto a Series S Sensor Chip SA (certified) (GE Healthcare) were used. Antibodies of interest were captured onto an antigen peptide-immobilized chip, and allowed to interact to each FcγR diluted with running buffer. To regenerate and repeatedly use the chip, the antibodies captured on the chip were washed off by reacting 10 mM glycine-HCl, pH 1.5.

[2] = target: T2, FcγRIIb extracellular domain with C-terminal His tag (human, UniProt P31994 43-217); assay: SPR (Biacore), antibody captured, FcγR as analyte; He Ab binding / GpH7-A5/GpH7-B3/GpL16-k0 binding x 100
T2 construct: extracellular domain; also called FcgRIIb; 2b; not shown: His tag at the C terminus
T2 sequence (looked up): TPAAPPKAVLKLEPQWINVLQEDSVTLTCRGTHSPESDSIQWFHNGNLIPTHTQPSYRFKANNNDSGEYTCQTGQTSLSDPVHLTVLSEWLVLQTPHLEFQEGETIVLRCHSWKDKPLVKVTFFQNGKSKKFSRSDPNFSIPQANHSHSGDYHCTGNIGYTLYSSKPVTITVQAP
Description: as §1, §2

[3] = target: T1, FcγRIIIa extracellular domain with …; assay: as above
Description: as §1, §2

T1 sequence (P08637 17-208): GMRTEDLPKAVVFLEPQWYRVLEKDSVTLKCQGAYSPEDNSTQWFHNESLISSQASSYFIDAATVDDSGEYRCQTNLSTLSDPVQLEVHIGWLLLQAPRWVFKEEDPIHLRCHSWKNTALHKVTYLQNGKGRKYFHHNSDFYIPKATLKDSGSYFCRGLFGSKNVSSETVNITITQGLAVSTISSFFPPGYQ

Binder	He_3a/2b (IIIa/IIb) [1] [ratio]	He/Con_2b (IIb binding) [2]	He/Con_3a (IIIa binding) [3]
B1	1.27	87.1 relative, control = 100	111 relative, control = 100
B2	1.55	48.9 relative, control = 100	75.9 relative, control = 100
B3	1.51	56.9 relative, control = 100	86.1 relative, control = 100
B4	1.27	119 relative, control = 100	151 relative, control = 100
B5	1.39	40.5 relative, control = 100	56.4 relative, control = 100
B6	1.76	16.9 relative, control = 100	29.6 relative, control = 100
B7	1.37	108 relative, control = 100	147 relative, control = 100
B8	1.27	105 relative, control = 100	134 relative, control = 100
B9	1.33	111 relative, control = 100	148 relative, control = 100
B10	1.69	94.8 relative, control = 100	160 relative, control = 100
B11	1.63	142 relative, control = 100	233 relative, control = 100
B12	1.35	106 relative, control = 100	143 relative, control = 100
B13	1.33	109 relative, control = 100	144 relative, control = 100
B14	1.31	92.5 relative, control = 100	121 relative, control = 100
B15	1.41	147 relative, control = 100	207 relative, control = 100
B16	1.52	17.6 relative, control = 100	26.7 relative, control = 100
